In the Human Domainome abundance scans (Beltran et al. 2025):
± gives the uncertainty stated by the source.

B1: DnaJ homolog subfamily C member 5, residues 16 to 77; numbered along this chain, Q9H3Z4 (parent)
chain: LYHVLGLDKNATSDDIKKSYRKLALKYHPDKNPDNPEAADKFKEINNAHAILTDATKRNIYD

Variants of: B1
Assay: abundance fitness (aPCA) (normalised: wild type 0, dead -1); higher = more abundant; growth selection in yeast, the domain comes from the species named
Details: Homo sapiens
L52K gave an abundance fitness of -0.419 ± 0.098.
Variant L52N has an abundance fitness of -1.02 ± 0.42.
In the case of L52H, the abundance fitness is reported as -0.767 ± 0.26.
In the case of L52F, the abundance fitness is reported as -0.295 ± 0.39.
In the case of L52D, the abundance fitness is reported as -0.381 ± 0.16.
Variant L52W has an abundance fitness of -0.454 ± 0.11.
Variant L52S has an abundance fitness of -0.493 ± 0.098.
With L52A the abundance fitness was -0.303 ± 0.12.
For L52I, the abundance fitness was -0.592 ± 0.23.
L52C gave an abundance fitness of -0.963 ± 0.26.
For L52V, the abundance fitness was -0.524 ± 0.085.
Work on L52P yielded an abundance fitness of -0.292 ± 0.12.
In the case of L52R, the abundance fitness is reported as -0.479 ± 0.079.
Variant L52E has an abundance fitness of -0.293 ± 0.12.
For L52G, the abundance fitness was -0.555 ± 0.094.
Variant L52Q has an abundance fitness of -0.572 ± 0.1.
With L52M the abundance fitness was -0.395 ± 0.11.
In the case of L52T, the abundance fitness is reported as -0.446 ± 0.081.
Variant N47S has an abundance fitness of -0.259 ± 0.49.
N47R gave an abundance fitness of -0.142 ± 0.28.
In the case of A48P, the abundance fitness is reported as -0.384 ± 0.16.
A48S gave an abundance fitness of -0.277 ± 0.098.
In the case of A48H, the abundance fitness is reported as -0.477 ± 0.2.
A48G showed an abundance fitness of -0.455 ± 0.095.
For A48E, the abundance fitness was -0.387 ± 0.12.
In the case of A48C, the abundance fitness is reported as -0.85 ± 0.16.
A48V gave an abundance fitness of -0.777 ± 0.099.
With A48W the abundance fitness was -1.58 ± 0.21.
Variant A48T has an abundance fitness of -0.777 ± 0.16.
For A48I, the abundance fitness was -0.769 ± 0.14.
In the case of A48Q, the abundance fitness is reported as -0.82 ± 0.18.
A48N gave an abundance fitness of -0.903 ± 0.14.
Variant A48M has an abundance fitness of -1.06 ± 0.24.
A48F gave an abundance fitness of -1.72 ± 0.41.
In the case of A48Y, the abundance fitness is reported as -0.748 ± 0.31.
Work on A48D yielded an abundance fitness of -0.16 ± 0.27.
With D62T the abundance fitness was -0.894 ± 0.49.
Work on D62S yielded an abundance fitness of -0.421 ± 0.13.
With D62R the abundance fitness was -0.428 ± 0.4.
For D62P, the abundance fitness was -0.349 ± 0.17.
Work on D62V yielded an abundance fitness of -0.662 ± 0.14.
In the case of D62Q, the abundance fitness is reported as -0.58 ± 0.38.
For D62L, the abundance fitness was -0.472 ± 0.28.
D62W gave an abundance fitness of -0.546 ± 0.27.
Work on D62K yielded an abundance fitness of -0.661 ± 0.27.
D62G showed an abundance fitness of -0.16 ± 0.083.
Work on D62A yielded an abundance fitness of -0.188 ± 0.12.
Work on D62M yielded an abundance fitness of -0.743 ± 0.15.
With D62Y the abundance fitness was -0.849 ± 0.29.
D62N gave an abundance fitness of -0.465 ± 0.12.
Variant N46P has an abundance fitness of -0.653 ± 0.13.
Work on N46R yielded an abundance fitness of -0.017 ± 0.072.
N46W showed an abundance fitness of -0.778 ± 0.13.
Variant N46Q has an abundance fitness of -0.035 ± 0.17.
Variant N46Y has an abundance fitness of -0.312 ± 0.45.
For N46V, the abundance fitness was 0.182 ± 0.085.
For N46T, the abundance fitness was 0.256 ± 0.092.
Y61M showed an abundance fitness of -0.218 ± 0.12.
In the case of Y61H, the abundance fitness is reported as 0.054 ± 0.21.
For Y61V, the abundance fitness was 0.002 ± 0.083.
Work on Y61K yielded an abundance fitness of -0.174 ± 0.15.
In the case of Y61F, the abundance fitness is reported as -0.273 ± 0.12.
For Y61G, the abundance fitness was 0.226 ± 0.063.
Variant Y61A has an abundance fitness of 0.165 ± 0.089.
In the case of Y61P, the abundance fitness is reported as 0.244 ± 0.12.
With Y61E the abundance fitness was 0.157 ± 0.12.
Variant Y61T has an abundance fitness of 0.073 ± 0.11.
For Y61R, the abundance fitness was 0.03 ± 0.076.
Y61L showed an abundance fitness of -0.09 ± 0.087.
Work on Y61S yielded an abundance fitness of 0.182 ± 0.067.
Variant Y61N has an abundance fitness of -0.199 ± 0.16.
In the case of Y61W, the abundance fitness is reported as -0.511 ± 0.12.
Y61Q showed an abundance fitness of 0.104 ± 0.14.
Work on Y61C yielded an abundance fitness of -0.063 ± 0.098.
In the case of Y61I, the abundance fitness is reported as -0.129 ± 0.11.
Y61D gave an abundance fitness of 0.22 ± 0.12.
For A50M, the abundance fitness was -0.087 ± 0.089.
Variant A50I has an abundance fitness of -0.334 ± 0.13.
For A50L, the abundance fitness was -0.386 ± 0.083.
A50C showed an abundance fitness of -0.688 ± 0.21.
For A50S, the abundance fitness was 0.059 ± 0.078.
In the case of A50G, the abundance fitness is reported as -0.198 ± 0.071.
A50K gave an abundance fitness of -0.091 ± 0.11.
In the case of A50P, the abundance fitness is reported as -0.773 ± 0.1.
With A50T the abundance fitness was -0.072 ± 0.1.
In the case of A50V, the abundance fitness is reported as -0.19 ± 0.065.
Variant A50F has an abundance fitness of -0.61 ± 0.15.
With A50W the abundance fitness was -0.748 ± 0.13.
A50R gave an abundance fitness of -0.009 ± 0.059.
For A50H, the abundance fitness was -0.237 ± 0.14.
A50E showed an abundance fitness of -0.562 ± 0.12.
In the case of A50Q, the abundance fitness is reported as -0.294 ± 0.11.
A50Y showed an abundance fitness of -0.604 ± 0.17.
With K57W the abundance fitness was -0.99 ± 0.13.
Work on K57V yielded an abundance fitness of -0.656 ± 0.1.
With K57M the abundance fitness was -0.43 ± 0.17.
For K57N, the abundance fitness was -0.575 ± 0.33.
With K57E the abundance fitness was -0.023 ± 0.096.
K57P showed an abundance fitness of -0.593 ± 0.16.
K57Q showed an abundance fitness of -0.1 ± 0.12.
In the case of K57L, the abundance fitness is reported as -0.399 ± 0.079.
In the case of K57C, the abundance fitness is reported as -0.672 ± 0.14.
K57R gave an abundance fitness of -0.059 ± 0.081.
K57A gave an abundance fitness of -0.079 ± 0.093.
K57S gave an abundance fitness of -0.349 ± 0.11.
In the case of K57I, the abundance fitness is reported as -0.511 ± 0.13.
Variant K57F has an abundance fitness of -1.01 ± 0.13.
In the case of K57T, the abundance fitness is reported as -0.415 ± 0.13.
K57G showed an abundance fitness of -0.373 ± 0.079.
Work on K57D yielded an abundance fitness of -0.079 ± 0.14.
I60L gave an abundance fitness of 0.077 ± 0.093.
Variant I60E has an abundance fitness of 0.522 ± 0.094.
Work on I60Y yielded an abundance fitness of -0.074 ± 0.16.
With I60R the abundance fitness was 0.08 ± 0.059.
Variant I60V has an abundance fitness of 0.176 ± 0.093.
Work on I60P yielded an abundance fitness of -0.039 ± 0.088.
Variant I60S has an abundance fitness of 0.258 ± 0.076.
With I60A the abundance fitness was 0.257 ± 0.092.
I60G showed an abundance fitness of 0.223 ± 0.065.
I60H gave an abundance fitness of -0.135 ± 0.2.
With I60T the abundance fitness was 0.054 ± 0.12.
For I60K, the abundance fitness was 0.197 ± 0.11.
I60M gave an abundance fitness of 0.114 ± 0.1.
Variant I60D has an abundance fitness of 0.493 ± 0.21.
Work on I60C yielded an abundance fitness of 0.109 ± 0.1.
Variant I60W has an abundance fitness of 0.008 ± 0.09.
I60Q gave an abundance fitness of 0.168 ± 0.13.
With T53A the abundance fitness was -0.118 ± 0.072.
In the case of T53R, the abundance fitness is reported as -0.127 ± 0.057.
In the case of T53G, the abundance fitness is reported as 0.07 ± 0.065.
T53P gave an abundance fitness of -0.678 ± 0.083.
